T1: R. norvegicus Nup54 of the published Nup58-Nup54 crystal construct (aa 456–494) (R. norvegicus, UniProt P70582 456-494)
T1 chain: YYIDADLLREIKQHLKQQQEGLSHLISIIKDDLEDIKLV

T2: R. norvegicus Nup62 (aa 322–525), entire predicted α-helical part (R. norvegicus, UniProt P17955 322-525)
T2 sequence: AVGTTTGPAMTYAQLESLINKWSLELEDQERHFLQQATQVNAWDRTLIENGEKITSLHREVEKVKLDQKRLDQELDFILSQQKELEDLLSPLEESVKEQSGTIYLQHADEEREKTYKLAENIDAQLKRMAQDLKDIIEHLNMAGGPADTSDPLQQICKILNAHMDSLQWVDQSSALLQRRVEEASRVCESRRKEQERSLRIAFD

B1: R. norvegicus Nup58 (aa 327–415), N-terminally truncated (domain or fragment)
chain: APADYFRVLVQQFEVQLQQYRQQIEELENHLATQANNSHITPQDLSMAMQKIYQTFVALAAQLQSIHENVKVLKEQYLSYRKMFLGDAG
B2: R. norvegicus Nup58 of the published Nup58-Nup54 crystal construct (aa 327–412) (domain or fragment)
chain: APADYFRVLVQQFEVQLQQYRQQIEELENHLATQANNSHITPQDLSMAMQKIYQTFVALAAQLQSIHENVKVLKEQYLSYRKMFLG
B3: long rnNup58-Nup54-Nup62 complex (complex)
chain 1: not shown
chain 2: MTKQHQTRLDIISEDISELQKNQTTTMAKIAQYKRKLMDLSHRTLQVLIKQEIQRKSGYAIQAEEEQLRVQLDTIQGELNAPTQFKGRLNELMSQIRMQNHFGAVKSEEKYYIDADLLREIKQHLKQQQEGLSHLISIIKDDLEDIKLV
chain 3: T2 sequence
B4: R. norvegicus Nup54 (aa 346–494), entire predicted α-helical part (domain or fragment)
chain: B3 chain 2
B5: short rnNup58-Nup54-Nup62 complex (complex)
chain 1: B1 chain
chain 2: B3 chain 2
chain 3: T2 sequence
B6: R. norvegicus Nup58 (aa 239–415), entire predicted α-helical part (domain or fragment)
chain: not shown

Key:
[1] = target: B4; test: SEC
[2] = target: T1, R. norvegicus Nup54 of the published …; test: AUC
AUC = target: the molecule itself; test: AUC
[3] = target: T2, R. norvegicus Nup62 (aa 322–525), …; test: SEC

Row | stoichiometry N [1] | Binder | Kd (AUC) [µM] | further results
1 | 1 | B1 | – | –
2 | – | B2 | – | stoichiometry N [2]: 2 Nup58:Nup54
3 | – | B3 | 52 | –
4 | – | B4 | – | stoichiometry N [3]: 1
5 | – | B5 | 49.3 | –
6 | 1 | B6 | – | –
